This note sets out measurements from US20250011363A1, “OPTIMIZED SHORTENED PEPTIDE THAT BINDS TO ACETYLCHOLINE RECEPTOR, AND USE THEREOF” (SKINMED CO., LTD., priority 2021, published 2025).

The target in assay [1] is acetylcholine receptor. Kind of assay: SPR, AchR immobilised, peptide 10 uM. (In general: In SPR one partner is held on a chip, and binding of the other changes the refractive index at the surface.)
For assay [2], the target named is acetylcholine receptor. Kind of assay: SPR, AchR immobilized on CM5 chip, peptide 10 uM.

In assay [1], KKESHR [6mer-1-638] returned a Binding affinity (RU) of 20 RU.

Consider KRHNVR [6mer-1-617], for which, in assay [1], the Binding affinity (RU) came out at 31 RU.

The molecule RKIPKK [6mer-1-788] yielded a Binding affinity (RU) in assay [2] of 22 RU.

For the molecule KKYNGK [6mer-1-642], the Binding affinity (RU) in assay [1] turned out to be 24 RU. The same measure, in the same setting: next, KRMEPR [6mer-1-630]: 14 RU. As to KRMNDR [6mer-1-654], the Binding affinity (RU) in assay [1] is 23 RU.

As for KRPHFK [6mer-1-603], the Binding affinity (RU) in assay [1] was 13 RU. The same measure, in the same setting: to KRIMER [6mer-1-612] belongs 17 RU.

In the case of RKPDDK [6mer-1-791], the Binding affinity (RU) in assay [2] was 13 RU. KRIMKK [6mer-1-613] yielded a Binding affinity (RU) in assay [1] of 14 RU. With KKYHVK [6mer-1-660], in assay [1], the Binding affinity (RU) stood at 31 RU.

In turn, KKNTMR [6mer-1-634] gave a Binding affinity (RU) in assay [1] of 12 RU. RRTWWR [6mer-1-627]: the Binding affinity (RU) in assay [1] stood at 29 RU. With KREDKK [6mer-1-625], the Binding affinity (RU) in assay [1] came out at 33 RU. The molecule RRTDWR [6mer-1-623] gave a Binding affinity (RU) in assay [1] of 21 RU. KKIDKR [6mer-1-619] displayed a Binding affinity (RU) in assay [1] of 23 RU. In turn, RKCHVK [6mer-1-618] displayed a Binding affinity (RU) in assay [1] of 19 RU. Turning to KKFWEK [6mer-1-648], the Binding affinity (RU) in assay [1] is 17 RU. With KRPDNR [6mer-1-626], in assay [1], the Binding affinity (RU) turned out to be 27 RU. KKTTWK [6mer-1-635] had a Binding affinity (RU) in assay [1] of 33 RU.

For the molecule KKPPAK [6mer-1-624], in assay [1], the Binding affinity (RU) was 30 RU. The same measure, in the same setting: next, RKKEMK [6mer-1-658]: 20 RU.

KRMMPK [6mer-1-789] gave a Binding affinity (RU) in assay [2] of 19 RU.

In assay [1], RRIAGK [6mer-1-649] returned a Binding affinity (RU) of 32 RU. Still for that read-out and setting: to KKPSKR [6mer-1-659] belongs 29 RU; to RREMFK [6mer-1-641], 21 RU.

RKYKDR [6mer-1-636]: the Binding affinity (RU) in assay [1] came out at 27 RU. The same measure, in the same setting: to RRMAGK [6mer-1-621] belongs 30 RU. In assay [2], KKCHMR [6mer-1-795] gave a Binding affinity (RU) of 12 RU. With KKFTKK [6mer-1-604], the Binding affinity (RU) in assay [1] amounted to 24 RU. Still for that read-out and setting: next, RKNPVR [6mer-1-609]: 24 RU. The molecule RKYEPK [6mer-1-794] showed a Binding affinity (RU) in assay [2] of 11 RU. Molecule RKDTAR [6mer-1-632] came in with a Binding affinity (RU) in assay [1] of 17 RU. In assay [2], KKPNPK [6mer-1-790] gave a Binding affinity (RU) of 12 RU. KKNCHK [6mer-1-611] returned a Binding affinity (RU) in assay [1] of 23 RU.

RKIDAK [6mer-1-633] came in with a Binding affinity (RU) in assay [1] of 16 RU. Turning to KRKDKK [6mer-1-792], the Binding affinity (RU) in assay [2] was 30 RU.

Regarding KKTPNR [6mer-1-793], the Binding affinity (RU) in assay [2] amounted to 31 RU. For the molecule KKEWNK [6mer-1-601], in assay [1], the Binding affinity (RU) turned out to be 27 RU. The same measure, in the same setting: to RKAEKR [6mer-1-602] belongs 18 RU; to RRTTIR [6mer-1-645], 33 RU. Same read-out and setting: to RKNADR [6mer-1-605] belongs 20 RU. As to RRHAFK [6mer-1-796], the Binding affinity (RU) in assay [2] was determined as 28 RU. In turn, KRICWK [6mer-1-651] returned a Binding affinity (RU) in assay [1] of 27 RU. On to RRKTAK [6mer-1-620], for which, in assay [1], the Binding affinity (RU) amounted to 11 RU. Still for that read-out and setting: next, KKEEER [6mer-1-614]: 12 RU. Still for that read-out and setting: to RKTWFR [6mer-1-644] belongs 31 RU; to RKYNVR [6mer-1-647], 14 RU. Same read-out and setting: to KRPNVR [6mer-1-639] belongs 24 RU; to KKHHER [6mer-1-610], 27 RU. Turning to KRMTHR [6mer-1-653], the Binding affinity (RU) in assay [1] came out at 15 RU. The same measure, in the same setting: next, RKMDAK [6mer-1-629]: 11 RU. For RKNMFR [6mer-1-655], the Binding affinity (RU) in assay [1] amounted to 12 RU. In turn, RRDCFR [6mer-1-798] came in with a Binding affinity (RU) in assay [2] of 18 RU. Consider RRCNNR [6mer-1-650], for which the Binding affinity (RU) in assay [1] came out at 18 RU.

RREWFR [6mer-1-606] returned a Binding affinity (RU) in assay [1] of 15 RU. In assay [1], KKNTIK [6mer-1-616] displayed a Binding affinity (RU) of 31 RU.

On to KKTSER [6mer-1-615], for which the Binding affinity (RU) in assay [1] turned out to be 18 RU.

RRNCWR [6mer-1-640]: the Binding affinity (RU) in assay [1] was determined as 25 RU. Same read-out and setting: next, RRPTHK [6mer-1-656]: 28 RU; RRENEK [6mer-1-628]: 23 RU. Turning to KKCPNR [6mer-1-622], the Binding affinity (RU) in assay [1] was 18 RU. Same read-out and setting: next, RRPEVK [6mer-1-652]: 26 RU. Still for that read-out and setting: to KKDHFR [6mer-1-607] belongs 22 RU. On the same count and under the same terms, to KKACMR [6mer-1-608] belongs 18 RU; to RRCTGK [6mer-1-646], 33 RU. In turn, RRAWNK [6mer-1-797] had a Binding affinity (RU) in assay [2] of 22 RU. Consider KRYSMR [6mer-1-643], for which, in assay [1], the Binding affinity (RU) turned out to be 31 RU.

Take RRFEFK [6mer-1-637]: the Binding affinity (RU) in assay [1] came out at 33 RU.

RRCTVR [6mer-1-657]: the Binding affinity (RU) in assay [1] came out at 17 RU. RRYSDR [6mer-1-631]: in assay [1], the Binding affinity (RU) worked out at 13 RU.
